US6808877B2, “Ligands for FPR class receptors that induce a host immune response to a pathogen or inhibit HIV infection” (priority 2000, dated 2004)
Entries after “also recorded” stand apart in the source; their conditions may differ.

T1: FPR (Homo sapiens, UniProt P21462)
T1 construct: H. Ali and R. Snyderman (Duke University); host or cells: RBL-2H3 rat basophilic leukemia cells
T1 sequence (P21462 1-350): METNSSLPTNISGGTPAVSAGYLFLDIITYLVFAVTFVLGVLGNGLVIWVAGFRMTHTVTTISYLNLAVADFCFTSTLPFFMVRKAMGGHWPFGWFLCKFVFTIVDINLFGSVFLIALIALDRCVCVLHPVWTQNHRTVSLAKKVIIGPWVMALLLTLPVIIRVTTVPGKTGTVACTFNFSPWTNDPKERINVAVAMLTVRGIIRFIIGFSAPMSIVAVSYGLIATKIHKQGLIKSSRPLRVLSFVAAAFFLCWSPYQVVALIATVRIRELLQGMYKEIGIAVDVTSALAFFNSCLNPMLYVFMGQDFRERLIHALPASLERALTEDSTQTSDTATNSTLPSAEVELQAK

T2: FPRL1 (Homo sapiens, UniProt P25090)
T2 construct: expressed in transfected cells; host or cells: HEK 293
T2 sequence (P25090 1-351): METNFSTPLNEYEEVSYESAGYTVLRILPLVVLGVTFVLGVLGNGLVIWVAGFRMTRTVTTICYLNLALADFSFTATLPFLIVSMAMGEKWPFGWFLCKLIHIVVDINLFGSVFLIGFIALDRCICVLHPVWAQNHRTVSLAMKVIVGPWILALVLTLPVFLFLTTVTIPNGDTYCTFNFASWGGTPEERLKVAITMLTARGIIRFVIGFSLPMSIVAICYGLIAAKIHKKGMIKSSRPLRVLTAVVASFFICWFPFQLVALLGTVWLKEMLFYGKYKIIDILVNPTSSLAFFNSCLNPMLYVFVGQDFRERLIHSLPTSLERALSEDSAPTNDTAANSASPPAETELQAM

B1: RANTES: chemokine that activates multiple receptors including CCR5 (protein, UniProt P13501 24-91, looked up)
C-C motif chemokine 5: SPYSSDTTPCCFAYIARPLPRAHIKEYFYTSGKCSNPAVVFVTRKNRQVCANPEKKWVREYINSLEMS
B2: MIP-1β: chemokine, CCR5 agonist (protein)
chain: APMGSDPPTACCFSYTARKLPRNFVVDYYETSSLCSQPAVVFQTKRSKQVCADPSESWVQEYVYDLELN
B3: SAA: serum amyloid A, recombinant, purchased from Pepro Tech (protein, UniProt P0DJI8 19-122, looked up)
Serum amyloid A-1 protein: RSFFSFLGEAFDGARDMWRAYSDMREANYIGSDKYFHARGNYDAAKRGPGGAWAAEVITDARENIQRFFGHGAEDSLADQAANEWGRSGKDPNHFRPAGLPEKY
B4: MIP-1α: chemokine that activates multiple receptors including CCR5 (protein, UniProt P10147 24-92, looked up)
C-C motif chemokine 3: SLAADTPTACCFSYTSRQIPQNFIADYFETSSQCSKPGVIFLTKRSRQVCADPSEEWVQKYVSDLELSA

What was measured:
CCR5 [1] = experiment: CCR5 serine phosphorylation in monocytes (anti-phosphoserine IP, anti-CCR5 immunoblot); assay type: cell-based, human; conditions: for MIP-1β-induced CCR5 phosphorylation after preincubation with PKC inhibitor: then MIP-1β 1 min; for serine phosphorylation of CCR5 / time of maximal CCR5 phosphorylation: human monocytes; for serine phosphorylation of CCR5: 37° C.
Description: Monocytes were isolated by counter-flow elutriation from the peripheral blood of normal donors (NIH Clinical Center, Transfusion Medicine Department, Bethesda, Md.) and enriched for mononuclear cells by using counter-flow elutriation. The purity of the cell preparations was examined by morphology after cytospin, and was >90%. The cells were stimulated with different concentrations of chemokines for indicated time periods at 37° C. and lysed for 20 min on ice with periodic mixing in lysis buffer (1% Triton X-100, 20 mM, Tris-HCl pH 8.0, 137 mM NaCl, 15% glycerol, 5 mM EDTA) containing phosphatase and protease inhibitors (1 mM phenylmethylsulfonyl fluoride, 5 μg/ml aprotinin, 5 μg/ml leupeptin, 1 mM sodium orthovanadate, 1 mM EGTA). Cell lysates were precleared with 30 µl of washed Protein-A sepherose beads (Pharmacia Biotech. Piscataway, N.J.), 1 μg of polyclonal anti-phospho-serine antibody (Zymed Laboratory Inc. South San Francisco, Calif.) was added to 200 μg cell lysates diluted with 2×immunoprecipitation (IP) buffer (1×buffer contains 1%Triton X-100, 10 mM Tris-HCl pH 7.4, 137 mM NaCl, 1 mM EDTA, 1 mM EGTA, 0.2 mM sodium orthovanadate, 0.2 mM PMSF, 0.5% NP-40). The reaction mixture was incubated at 4° C. overnight under constant rocking. The immune complex was captured by adding 50 μl of washed Protein-A sepharose beads (25 μl packed beads) and incubation of the reaction mixture at 4° C. for additional 2 hours. The beads were spun down (10 seconds at 14,000 rpm), the pellets were washed 3 times with ice-cold IP buffer, resuspended in 30 μl of 2×Laemmli sample buffer (126 mM Tris-HCl, 20% Glycerol, 4% SDS, 0.005% bromophenol blue with or without addition of 1% 2-mercaptoethanol, Novex, San Diego, Calif.) and boiled for 5 min to elute the immune complex. After electrophoresis on 4-12% SDS-PAGE precast gel (Novex), the proteins were transferred to Immobilon P membranes (Millipore, Bedford, Mass.). The membranes were blocked in freshly prepared PBS containing 3% dry milk 2 h, then were incubated with 1 μg/ml of polyclonal anti-CCR5 antibody (Millenium Biotechnology, Ramona, Calif.) overnight at 4° C. followed by washing 3 times with PBS containing 0.05% Tween 20. The membranes were incubated with a horse radish-peroxidase conjugated goat anti-rabbit IgG (1:5000) (Sigma, St. Louis, Mo.) in PBS containing 3% dry milk for 1 hour at room temperature with agitation. After washing 3 times with PBS-0.05% Tween 20, the membranes were incubated with Super Signal Chemiluminescent Substrate Stable Peroxide Solution (Pierce, Rockford, Ill.) for 1 min, and exposed to BIOMAX-MR film (Eastman Kodak Company, Rochester, N.Y.).
Monocytes stimulated with different concentrations of stimulants for indicated time periods at 37° C. were lysed for 20 min on ice with periodic mixing in lysis buffer [1% Triton X-100, 20 mM Tris-HCl (pH 8.0), 137 mM NaCl, 15% glycerol, 5 mM EDTA] containing phosphatase and protease inhibitors (1 mM phenylmethylsulfonyl fluoride, 5 μg/ml aprotinin, 5 μg/ml leupeptin, 1 mM sodium orthovanadate, 1 mM EGTA). Cell lysates were precleaned with 30 μl of washed Protein A Sepharose beads (15 μl packed beads) at 4° C. for 1 hour and 1 μg of polyclonal anti-phosphoserine antibody was added to 200 μg cell lysates diluted with 2×immunoprecipitation (IP) buffer [1×: 1% Triton X-100, 10 mM Tris-HCl (pH 7.4), 137 mM NaCl, 1 mM EDTA, 1 mM EGTA, 0.2 mM […], 0.2 mM PMSF, 0.5% NP-40]. The reaction mixture was incubated at 4° C. overnight under constant rocking. The immunecomplex was captured by adding 50 μl of washed Protein A sepharose beads (25 μl packed beads) and incubating the reaction mixture at 4° C. for an additional 2 hours. […]

FPR = target: T1, FPR; experiment: Migration of ETFR cells; assay type: cell-based; conditions: ETFR cells
FPRL1 = target: T2, FPRL1; assay type: cell-based; conditions: FPRL1/293 cells; 100 ng/ml, 37° C., 30 min
monocytes [2] = experiment: Monocyte chemotaxis, 48-well micro-chemotaxis chamber; assay type: cell-based, human; conditions: 37° C., 30 min
monocytes [3] = experiment: Ca2+ mobilization in monocytes (Fura-2); assay type: cell-based, human
Description: (§1) Calcium mobilization was measured by incubating 2×10^7/ml cells in loading medium (DMEM, 10% FBS) with 5 μM Fura-2 AM (Molecular Probes, Eugene, Oreg.) for 30 min at room temperature in the dark. The dye-loaded cells were washed 3 times with loading medium and resuspended in saline buffer [138 mM NaCl, 6 mM KCl, 1 mM CaCl2, 10 mM HEPES (pH 7.4), 5 mM Glucose, 0.1% BSA] at a concentration of 1×10^6/ml. The cells were then transferred into quartz cuvettes (2 ml) which were placed in a luminescence spectrometer (LS-50B, Perkin-Elmer, Beaconsfield, England). Stimulants at different concentrations were added in a volume of 20 μl to each cuvette at the indicated time points. The ratio of fluorescence at 340 and 380 nm wavelength was calculated using a FL WinLab program (Perkin-Elmer).
Calcium mobilization was assayed by incubating 2×10^7/ml of monocytes, neutrophils, FPRL1 or FPR transfectants in loading buffer containing 138 mM NaCl, 6 mM KCl, 1 mM CaCl2, 10 mM HEPES (pH 7.4), 5 mM glucose, 0.1% BSA with 5 μM Fura-2 (Sigma) at 37° C. for 30 min. The dye-loaded cells were washed and resuspended in fresh loading buffer. The cells were then transferred into quartz cuvettes (10^6 cells in 2 ml) which were placed in a luminescence spectrometer LS50 B (Perkin-Elmer Limited, Beaconsfield, England). Stimulants at different concentrations were added in a volume of 20 μl to the cuvettes at indicated time points. The ratio of fluorescence at 340 and 380 nm wavelength was calculated using the FL WinLab program (Perkin-Elmer).

monocytes [4] = experiment: Ca2+ mobilization of monocytes in response to chemokines after preincubation (heterologous desensitization); assay type: cell-based, human; conditions: staurosporine 2.5 ng/ml 30 min
Description: Calcium mobilization was measured by incubating monocytes (2×10^7/ml) in loading medium (DMEM, 10% FCS) with 5 μM Fura-2 AM (Molecular Probes, Eugene, Oreg.) for 30 min at room temperature in the dark. The dye-loaded cells were washed 3 times and resuspended in saline buffer (138 mM NaCl, 6 mM KCl, 1 mM CaCl2, 10 mM Hepes pH 7.4, 5 mM glucose, 0.1% BSA). The cells were then transferred into quartz cuvettes (2×10^6 cells in 2 ml) which were placed in a luminescence spectrometer (LS-50B, Perkin-Elmer, Beaconsfield, UK). Stimulants at different concentrations were added in a volume of 20 μl to each cuvette at the indicated time points. The ratio of fluorescence at 340 and 380 nm was calculated using a FL-WinLab program (Perkin Elmer). To examine the effect of fMLP, monocytes were preincubated with 10^−6 M fMLP or with medium alone for 60 min at 37° C. The cells were thoroughly washed and then were stained with Fura-2 for the calcium mobilization desensitization. The results are representative of at least three experiments performed.
as §1

CCR5 [5] = experiment: Surface expression of CCR5 on monocytes by flow cytometry; assay type: cell-based, human; conditions: FITC-anti-CCR5 2D7
Description: The change of surface expression of CCR5 on monocytes was monitored by FACS analyses (courtesy of L. […] The cells were then washed twice with DPBS containing 2% BSA and fixed with 1% Paraformaldehyde (Sigma). The fluorescence was measured by flow cytometer (Becton Dickinson, San Jose, Calif.). Results are presented as the percentage of cells stained with anti-CCR5 antibody.

CCR5 [6] = assay type: cell-based, human; conditions: HOS/CD4/CCR5 cells co-expressing FPR

Row | Molecule | serine phosphorylation of CCR5 (CCR5 [1]) | Ca2+ mobilization (monocytes [3]) | expression of CCR5 on the cell surface (CCR5 [5]) | time of maximal CCR5 phosphorylation (CCR5 [1]) | other results
1 | calphostin C | – | – | – | – | MIP-1β-induced CCR5 phosphorylation after preincubation with PKC inhibitor (CCR5 [1]; monocytes): little effect; fMLP-induced CCR5 phosphorylation after preincubation with PKC inhibitor (CCR5 [1]; monocytes, calphostin C 50 ng/ml 2.5 h, then fMLP 10^−6 M 60 min): markedly reduced
2 | T20/DP178: synthetic peptide corresponding to a region in the C-terminus of the ectodomain of gp41 | significant and dose-dependent phosphorylation of CCR5 | – | – | – | –
3 | pertussis toxin | – | – | – | – | W peptide induced migration after pretreatment of the cells (FPR): inhibited; W peptide induced migration after pretreatment of the cells (FPRL1): inhibited; chemotaxis response to V3 peptide after preincubation of the cells (monocytes [2]; human phagocytes, 100 ng/ml): inhibited; migration in response to W peptide after pretreatment of the cells (monocytes [2]; phagocytes, 100 ng/ml toxin): completely inhibited
4 | MCP-1: chemokine | – | significant Ca^2+ mobilization | – | – | –
5 | SDF-1α | – | significant Ca^2+ mobilization | – | – | –
6 | CN[C@@H]1C[C@H]2O[C@@](C)([C@@H]1OC)n1c3ccccc3c3c4c(c5c6ccccc6n2c5c31)C(=O)NC4 [staurosporine] | – | – | – | – | MIP-1β-induced CCR5 phosphorylation after preincubation with PKC inhibitor (CCR5 [1]; monocytes): did not affect; V3 peptide-induced CCR5 phosphorylation after pretreatment with PKC inhibitor (CCR5 [1]; monocytes, staurosporine 2.5 ng/ml 30 min, then V3 peptide 1.5 μM 60 min): no longer significantly induced phosphorylation of CCR5; Ca2+ mobilization in response to RANTES or SDF-1α after PKC inhibitor followed by V3 peptide (monocytes [4]): almost normal Ca^2+ mobilization
7 | B1 | rapidly phosphorylated | induced a transient rise in Ca^2+; also recorded: significant Ca^2+ mobilization | downregulated | 1 min | –
8 | B2 | rapidly phosphorylated | poor inducer of Ca^2+ flux | downregulated | 1 min | –
9 | B3 | significant and dose-dependent phosphorylation of CCR5 | – | – | – | –
10 | B4 | rapidly phosphorylated | induced a transient rise in Ca^2+ | downregulated | 1 min | phosphorylation of CCR5 (CCR5 [6]): induced an increase in phosphorylation of CCR5
